Measurements as given in PMC11414716, “Structural insights into polyamine spermidine uptake by the ABC transporter PotD-PotABC” (Science Advances, 2024).

T1: PotD (wild type), spermidine-binding protein (E. coli K12, UniProt P0AFK9 24-348)
T1 construct: expressed from the entire potABCD operon; Hexahistidine tag is called noncleavable; also called PoD wild-type; source: E. coli C41, expressed from the potABCD operon with the tag on PotD; purified (Ni-NTA, Superose 6 SEC); in lysate for the co-purification attempt; not shown: His6, C-terminal, kept
T1 sequence (looked up): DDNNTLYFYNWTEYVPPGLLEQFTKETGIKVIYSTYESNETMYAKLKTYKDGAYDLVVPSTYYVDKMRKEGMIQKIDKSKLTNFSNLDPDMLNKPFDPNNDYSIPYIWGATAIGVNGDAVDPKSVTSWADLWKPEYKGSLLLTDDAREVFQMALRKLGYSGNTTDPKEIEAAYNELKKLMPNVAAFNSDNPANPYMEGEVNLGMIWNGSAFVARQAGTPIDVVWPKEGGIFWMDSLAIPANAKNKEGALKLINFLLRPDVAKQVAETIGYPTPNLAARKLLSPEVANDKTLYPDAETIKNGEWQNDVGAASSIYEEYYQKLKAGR

B1: PotB (natural protein, E. coli K12, UniProt P0AFK4 1-275, looked up)
chain: MIVTIVGWLVLFVFLPNLMIIGTSFLTRDDASFVKMVFTLDNYTRLLDPLYFEVLLHSLNMALIATLACLVLGYPFAWFLAKLPHKVRPLLLFLLIVPFWTNSLIRIYGLKIFLSTKGYLNEFLLWLGVIDTPIRIMFTPSAVIIGLVYILLPFMVMPLYSSIEKLDKPLLEAARDLGASKLQTFIRIIIPLTMPGIIAGCLLVMLPAMGLFYVSDLMGGAKNLLIGNVIKVQFLNIRDWPFGAATSITLTIVMGLMLLVYWRASRLLNKKVELE
notes: PotB, transmembrane subunit, E. coli K12; the entire potABCD operon was cloned; Subunit of the PotABC complexes, written alone for the pairs within the solved complexes; source: E. coli C41, co-expressed and purified as part of the PotABC complex (Ni-NTA, SEC in LMNG; wild-type complex also in nanodiscs)
B2: PotC (natural protein, E. coli K12, UniProt P0AFK6 1-264, looked up)
chain: MIGRLLRGGFMTAIYAYLYIPIIILIVNSFNSSRFGINWQGFTTKWYSLLMNNDSLLQAAQHSLTMAVFSATFATLIGSLTAVALYRYRFRGKPFVSGMLFVVMMSPDIVMAISLLVLFMLLGIQLGFWSLLFSHITFCLPFVVVTVYSRLKGFDVRMLEAAKDLGASEFTILRKIILPLAMPAVAAGWVLSFTLSMDDVVVSSFVTGPSYEILPLKIYSMVKVGVSPEVNALATILLVLSLVMVIASQLIARDKTKGNTGDVK
notes: PotC, transmembrane subunit, E. coli K12; the entire potABCD operon was cloned; Subunit of the PotABC complexes, written alone for the pairs within the solved complexes; That the tag sits on PotC is surmised; source: E. coli C41, co-expressed and purified as part of the PotABC complex (Ni-NTA, SEC in LMNG; wild-type complex also in nanodiscs); not shown: His6 (inferred on PotC: C-terminal tag of …)
B3: PotA (wild type) (natural protein, E. coli K12, UniProt P69874 1-378, looked up)
chain: MGQSKKLNKQPSSLSPLVQLAGIRKCFDGKEVIPQLDLTINNGEFLTLLGPSGCGKTTVLRLIAGLETVDSGRIMLDNEDITHVPAENRYVNTVFQSYALFPHMTVFENVAFGLRMQKTPAAEITPRVMEALRMVQLETFAQRKPHQLSGGQQQRVAIARAVVNKPRLLLLDESLSALDYKLRKQMQNELKALQRKLGITFVFVTHDQEEALTMSDRIVVMRDGRIEQDGTPREIYEEPKNLFVAGFIGEINMFNATVIERLDEQRVRANVEGRECNIYVNFAVEPGQKLHVLLRPEDLRVEEINDDNHAEGLIGYVRERNYKGMTLESVVELENGKMVMVSEFFNEDDPDFDHSLDQKMAINWVESWEVVLADEEHK
notes: PotA, cytosolic ATPase subunit, E. coli K12; the entire potABCD operon was cloned; Subunit of the wild-type PotABC complex solved in nanodiscs
B4: PotA E173Q (natural protein, E. coli K12, UniProt P69874 1-378, looked up)
chain: MGQSKKLNKQPSSLSPLVQLAGIRKCFDGKEVIPQLDLTINNGEFLTLLGPSGCGKTTVLRLIAGLETVDSGRIMLDNEDITHVPAENRYVNTVFQSYALFPHMTVFENVAFGLRMQKTPAAEITPRVMEALRMVQLETFAQRKPHQLSGGQQQRVAIARAVVNKPRLLLLDQSLSALDYKLRKQMQNELKALQRKLGITFVFVTHDQEEALTMSDRIVVMRDGRIEQDGTPREIYEEPKNLFVAGFIGEINMFNATVIERLDEQRVRANVEGRECNIYVNFAVEPGQKLHVLLRPEDLRVEEINDDNHAEGLIGYVRERNYKGMTLESVVELENGKMVMVSEFFNEDDPDFDHSLDQKMAINWVESWEVVLADEEHK
notes: PotA, cytosolic ATPase subunit (NBD and regulatory domain), E. coli K12; the entire potABCD operon was cloned; Subunit of m1, written alone for the pairs within the solved complexes; source: E. coli C41, co-expressed and purified as part of the PotABC E173Q complex (Ni-NTA, SEC in LMNG)

Tests used:
[1] = molecular target: T1, PotD (wild type), spermidine-binding …; assay: cryo-EM structure; PotD-PotABC E173Q complex formed with Spd, ATP and Mg2+, in LMNG; Spd-bound pretranslocation state (3.1 Å) and ATP-bound translocation intermediate state (3 Å; dataset 2 with 3 mM Fos-Choline-8); conditions: both partners purified
[2] = molecular target: the molecule itself; assay: cryo-EM structure; wild-type PotABC complex reconstituted into MSP1E3D1/asolectin nanodiscs, with ATP, Mg2+ and Spd; map at 3.5 Å
[3] = molecular target: the molecule itself; assay: cryo-EM structure; PotD-PotABC E173Q complex formed with Spd, ATP and Mg2+, in LMNG; Spd-bound pretranslocation state (3.1 Å) and ATP-bound translocation intermediate state (3 Å; dataset 2 with 3 mM Fos-Choline-8)

Row | Binder | binding result [1] | also measured
1 | B1 | binds | 
2 | B2 | binds | 
3 | B3 |  | binding result [2]: binds
4 | B4 |  | stoichiometry N [3]: 2
